Molecular target: T1, CD3ε homodimer protein (human, UniProt P07766 23-126, limits assumed)
T1 construct: also called CD3 (CD3ε)
Experiment: SPR Biacore T200, CD3ε homodimer on chip;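 note: Light-chain single-residue variant antibodies injected over amine-coupled CD3ε homodimer on a CM4 chip at 25 °C, bound amount divided by that of the GLS3000-containing antibody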

T1 sequence (P07766 23-126 limits assumed): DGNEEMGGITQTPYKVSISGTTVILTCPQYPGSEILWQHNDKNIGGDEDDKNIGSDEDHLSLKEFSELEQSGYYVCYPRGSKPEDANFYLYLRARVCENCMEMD

ratio of amount bound vs unaltered GLS3000 | Binder
0.5 | GLS3000 G89W one-arm antibody (antibody, human IgG1, kappa, L234A L235A, N297A, name in Kabat numbering) heavy: QVQLVESGGGVVQPGRSLRLSCAASGFTFSNAWMHWVRQAPGKGLEWVAQIKAKSNNYATYYAESVKGRFTISRDDSKNSLYLQMNSLKTEDTAVYYCRYVHYGAYYGVDAWGQGTTVTVSSASTKGPSVFPLAPSSKSTSGGTAALGCLVKDYFPEPVTVSWNSGALTSGVHTFPAVLQSSGLYSLSSVVTVPSSSLGTQTYICNVNHKPSNTKVDKKVEPKSCDKTHTCPPCPAPEAAGGPSVFLFPPKPKDTLMISRTPEVTCVVVDVSHEDPEVKFNWYVDGVEVHNAKTKPREEQYASTYRVVSVLTVLHQDWLNGKEYKCKVSNKALPAPIEKTISKAKGQPREPQVYTLPPSRCELTKNQVSLSCAVKGFYPSDIAVEWESNGQPENNYKTTPPVLDSDGSFFLVSKLTVDKSRWQQGNVFSCSVMHEALHNHYTQKSLSLSPDYKDDDDK EPKSSDKTHTCPPCPAPELLGGPSVFLFPPKPKDTLMISRTPEVTCVVVDVSHEDPEVKFNWYVDGVEVHNAKTKPREEQYNSTYRVVSVLTVLHQDWLNGKEYKCKVSNKALPAPIEKTISKAKGQPREPQVCTLPPSRDELTKNQVSLWCLVKGFYPSDIAVEWESNGQPENNYKTTPPVLDSDGSFFLYSKLTVDKSRWQQGNVFSCSVMHEALHNRYTQKSLSLSP light: DIVMTQSPLSLPVTPGEPASISCRSSQSLVHSNRNTYLHWYQQKPGQAPRLLIYKVSNRFSGVPDRFSGSGSGTDFTLKISRVEAEDVGVYYCWQGTQVPYTFGQGTKLEIKRTVAAPSVFIFPPSDEQLKSGTASVVCLLNNFYPREAKVQWKVDNALQSGNSQESVTEQDSKDSTYSLSSTLTLSKADYEKHKVYACEVTHQGLSSPVTKSFNRGEC
1.19 | GLS3000 G89Y one-arm antibody (antibody, human IgG1, kappa, L234A L235A, N297A, name in Kabat numbering) heavy: QVQLVESGGGVVQPGRSLRLSCAASGFTFSNAWMHWVRQAPGKGLEWVAQIKAKSNNYATYYAESVKGRFTISRDDSKNSLYLQMNSLKTEDTAVYYCRYVHYGAYYGVDAWGQGTTVTVSSASTKGPSVFPLAPSSKSTSGGTAALGCLVKDYFPEPVTVSWNSGALTSGVHTFPAVLQSSGLYSLSSVVTVPSSSLGTQTYICNVNHKPSNTKVDKKVEPKSCDKTHTCPPCPAPEAAGGPSVFLFPPKPKDTLMISRTPEVTCVVVDVSHEDPEVKFNWYVDGVEVHNAKTKPREEQYASTYRVVSVLTVLHQDWLNGKEYKCKVSNKALPAPIEKTISKAKGQPREPQVYTLPPSRCELTKNQVSLSCAVKGFYPSDIAVEWESNGQPENNYKTTPPVLDSDGSFFLVSKLTVDKSRWQQGNVFSCSVMHEALHNHYTQKSLSLSPDYKDDDDK EPKSSDKTHTCPPCPAPELLGGPSVFLFPPKPKDTLMISRTPEVTCVVVDVSHEDPEVKFNWYVDGVEVHNAKTKPREEQYNSTYRVVSVLTVLHQDWLNGKEYKCKVSNKALPAPIEKTISKAKGQPREPQVCTLPPSRDELTKNQVSLWCLVKGFYPSDIAVEWESNGQPENNYKTTPPVLDSDGSFFLYSKLTVDKSRWQQGNVFSCSVMHEALHNRYTQKSLSLSP light: DIVMTQSPLSLPVTPGEPASISCRSSQSLVHSNRNTYLHWYQQKPGQAPRLLIYKVSNRFSGVPDRFSGSGSGTDFTLKISRVEAEDVGVYYCYQGTQVPYTFGQGTKLEIKRTVAAPSVFIFPPSDEQLKSGTASVVCLLNNFYPREAKVQWKVDNALQSGNSQESVTEQDSKDSTYSLSSTLTLSKADYEKHKVYACEVTHQGLSSPVTKSFNRGEC
0.27 | GLS3000 G91A one-arm antibody (antibody, human IgG1, kappa, L234A L235A, N297A, name in Kabat numbering) heavy: QVQLVESGGGVVQPGRSLRLSCAASGFTFSNAWMHWVRQAPGKGLEWVAQIKAKSNNYATYYAESVKGRFTISRDDSKNSLYLQMNSLKTEDTAVYYCRYVHYGAYYGVDAWGQGTTVTVSSASTKGPSVFPLAPSSKSTSGGTAALGCLVKDYFPEPVTVSWNSGALTSGVHTFPAVLQSSGLYSLSSVVTVPSSSLGTQTYICNVNHKPSNTKVDKKVEPKSCDKTHTCPPCPAPEAAGGPSVFLFPPKPKDTLMISRTPEVTCVVVDVSHEDPEVKFNWYVDGVEVHNAKTKPREEQYASTYRVVSVLTVLHQDWLNGKEYKCKVSNKALPAPIEKTISKAKGQPREPQVYTLPPSRCELTKNQVSLSCAVKGFYPSDIAVEWESNGQPENNYKTTPPVLDSDGSFFLVSKLTVDKSRWQQGNVFSCSVMHEALHNHYTQKSLSLSPDYKDDDDK EPKSSDKTHTCPPCPAPELLGGPSVFLFPPKPKDTLMISRTPEVTCVVVDVSHEDPEVKFNWYVDGVEVHNAKTKPREEQYNSTYRVVSVLTVLHQDWLNGKEYKCKVSNKALPAPIEKTISKAKGQPREPQVCTLPPSRDELTKNQVSLWCLVKGFYPSDIAVEWESNGQPENNYKTTPPVLDSDGSFFLYSKLTVDKSRWQQGNVFSCSVMHEALHNRYTQKSLSLSP light: DIVMTQSPLSLPVTPGEPASISCRSSQSLVHSNRNTYLHWYQQKPGQAPRLLIYKVSNRFSGVPDRFSGSGSGTDFTLKISRVEAEDVGVYYCGQATQVPYTFGQGTKLEIKRTVAAPSVFIFPPSDEQLKSGTASVVCLLNNFYPREAKVQWKVDNALQSGNSQESVTEQDSKDSTYSLSSTLTLSKADYEKHKVYACEVTHQGLSSPVTKSFNRGEC
0.16 | GLS3000 G91D one-arm antibody (antibody, human IgG1, kappa, L234A L235A, N297A, name in Kabat numbering) heavy: QVQLVESGGGVVQPGRSLRLSCAASGFTFSNAWMHWVRQAPGKGLEWVAQIKAKSNNYATYYAESVKGRFTISRDDSKNSLYLQMNSLKTEDTAVYYCRYVHYGAYYGVDAWGQGTTVTVSSASTKGPSVFPLAPSSKSTSGGTAALGCLVKDYFPEPVTVSWNSGALTSGVHTFPAVLQSSGLYSLSSVVTVPSSSLGTQTYICNVNHKPSNTKVDKKVEPKSCDKTHTCPPCPAPEAAGGPSVFLFPPKPKDTLMISRTPEVTCVVVDVSHEDPEVKFNWYVDGVEVHNAKTKPREEQYASTYRVVSVLTVLHQDWLNGKEYKCKVSNKALPAPIEKTISKAKGQPREPQVYTLPPSRCELTKNQVSLSCAVKGFYPSDIAVEWESNGQPENNYKTTPPVLDSDGSFFLVSKLTVDKSRWQQGNVFSCSVMHEALHNHYTQKSLSLSPDYKDDDDK EPKSSDKTHTCPPCPAPELLGGPSVFLFPPKPKDTLMISRTPEVTCVVVDVSHEDPEVKFNWYVDGVEVHNAKTKPREEQYNSTYRVVSVLTVLHQDWLNGKEYKCKVSNKALPAPIEKTISKAKGQPREPQVCTLPPSRDELTKNQVSLWCLVKGFYPSDIAVEWESNGQPENNYKTTPPVLDSDGSFFLYSKLTVDKSRWQQGNVFSCSVMHEALHNRYTQKSLSLSP light: DIVMTQSPLSLPVTPGEPASISCRSSQSLVHSNRNTYLHWYQQKPGQAPRLLIYKVSNRFSGVPDRFSGSGSGTDFTLKISRVEAEDVGVYYCGQDTQVPYTFGQGTKLEIKRTVAAPSVFIFPPSDEQLKSGTASVVCLLNNFYPREAKVQWKVDNALQSGNSQESVTEQDSKDSTYSLSSTLTLSKADYEKHKVYACEVTHQGLSSPVTKSFNRGEC
